Values joined by “and” are separate entries in the source; they are usually repeats but may differ in a detail not shown here. Equal entries are not always repeated. Non-standard residues stand in square brackets, D forms with d. No end group written: not given here. pY = N[C@@H](Cc1ccc(OP(=O)(O)O)cc1)C(=O)O; Rhodamine = not defined here
Tests used:
Experiment in all cases: peptide or protein array; SH2/PTB proteins spotted on aldehyde slides, rhodamine peptide titrated in buffer B (20 mM HEPES, 100 mM KCl, 0.1% Tween-20, 5 mM DTT, pH 7.8), 1 h at room temperature; replicate assays
Settings in all cases: both partners purified
ABL1 SH2 domain = biological target: T1, ABL1 SH2 domain (human, UniProt P00519 127-217)
T1 construct: ABL1, human; source: bacterial expression, purified
T1 sequence (looked up): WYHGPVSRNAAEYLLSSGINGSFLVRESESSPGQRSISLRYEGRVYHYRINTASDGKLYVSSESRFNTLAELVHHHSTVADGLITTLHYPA

FGR SH2 domain = biological target: T2, FGR SH2 domain (human, UniProt P09769 144-241)
T2 construct: FGR, human; source: bacterial expression, purified

[1] = biological target: T3, PIK3R3 C-terminal SH2 domain (human)
T3 construct: PIK3R3, human; source: bacterial expression, purified

[2] = biological target: T4, PLCG2 N-terminal SH2 domain (human)
T4 construct: PLCG2, human; source: bacterial expression, purified
T4 sequence (P16885 whole entry, looked up): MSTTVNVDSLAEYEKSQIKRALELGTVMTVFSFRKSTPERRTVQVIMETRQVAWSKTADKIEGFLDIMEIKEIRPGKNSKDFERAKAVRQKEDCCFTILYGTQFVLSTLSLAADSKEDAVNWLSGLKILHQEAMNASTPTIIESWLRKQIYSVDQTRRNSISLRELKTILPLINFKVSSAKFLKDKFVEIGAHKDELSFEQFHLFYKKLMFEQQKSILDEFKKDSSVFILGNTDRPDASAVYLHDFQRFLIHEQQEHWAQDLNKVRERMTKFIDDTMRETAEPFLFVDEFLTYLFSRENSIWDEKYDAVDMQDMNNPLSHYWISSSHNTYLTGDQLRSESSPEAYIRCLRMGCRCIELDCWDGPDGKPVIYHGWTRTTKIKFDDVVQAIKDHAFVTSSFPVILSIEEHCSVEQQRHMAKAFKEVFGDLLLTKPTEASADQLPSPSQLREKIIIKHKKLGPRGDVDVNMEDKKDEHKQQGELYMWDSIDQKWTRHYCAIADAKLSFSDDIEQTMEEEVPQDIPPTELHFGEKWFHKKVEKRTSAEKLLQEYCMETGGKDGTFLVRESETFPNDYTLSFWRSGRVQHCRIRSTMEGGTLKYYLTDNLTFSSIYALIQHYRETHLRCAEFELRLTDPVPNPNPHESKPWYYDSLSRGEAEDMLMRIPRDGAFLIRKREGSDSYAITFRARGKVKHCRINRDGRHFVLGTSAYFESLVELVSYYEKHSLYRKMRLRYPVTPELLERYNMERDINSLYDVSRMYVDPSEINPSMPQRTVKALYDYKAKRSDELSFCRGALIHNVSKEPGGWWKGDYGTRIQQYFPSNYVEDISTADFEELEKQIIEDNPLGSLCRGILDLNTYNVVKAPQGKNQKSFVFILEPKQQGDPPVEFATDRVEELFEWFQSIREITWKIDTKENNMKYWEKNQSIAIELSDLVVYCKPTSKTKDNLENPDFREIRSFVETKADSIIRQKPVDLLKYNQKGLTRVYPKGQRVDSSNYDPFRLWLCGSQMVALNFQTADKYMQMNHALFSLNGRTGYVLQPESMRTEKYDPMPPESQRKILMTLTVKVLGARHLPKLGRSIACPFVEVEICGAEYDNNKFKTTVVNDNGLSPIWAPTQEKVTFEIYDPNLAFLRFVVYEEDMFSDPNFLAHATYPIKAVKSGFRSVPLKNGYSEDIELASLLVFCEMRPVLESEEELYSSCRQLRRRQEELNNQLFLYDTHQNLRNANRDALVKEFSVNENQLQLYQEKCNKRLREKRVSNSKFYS

TNS3 SH2 domain = biological target: T5, TNS3 SH2 domain (human, UniProt Q68CZ2 1172-1282)
T5 construct: TNS3, human; source: bacterial expression, purified
T5 sequence (looked up): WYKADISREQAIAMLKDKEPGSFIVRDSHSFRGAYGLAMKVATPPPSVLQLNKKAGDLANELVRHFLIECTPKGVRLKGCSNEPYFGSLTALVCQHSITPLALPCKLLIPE

[3] = biological target: T6, ZAP70 C-terminal SH2 domain (human, UniProt P43403 1-619)
T6 construct: ZAP70, human; source: bacterial expression, purified
T6 sequence (looked up): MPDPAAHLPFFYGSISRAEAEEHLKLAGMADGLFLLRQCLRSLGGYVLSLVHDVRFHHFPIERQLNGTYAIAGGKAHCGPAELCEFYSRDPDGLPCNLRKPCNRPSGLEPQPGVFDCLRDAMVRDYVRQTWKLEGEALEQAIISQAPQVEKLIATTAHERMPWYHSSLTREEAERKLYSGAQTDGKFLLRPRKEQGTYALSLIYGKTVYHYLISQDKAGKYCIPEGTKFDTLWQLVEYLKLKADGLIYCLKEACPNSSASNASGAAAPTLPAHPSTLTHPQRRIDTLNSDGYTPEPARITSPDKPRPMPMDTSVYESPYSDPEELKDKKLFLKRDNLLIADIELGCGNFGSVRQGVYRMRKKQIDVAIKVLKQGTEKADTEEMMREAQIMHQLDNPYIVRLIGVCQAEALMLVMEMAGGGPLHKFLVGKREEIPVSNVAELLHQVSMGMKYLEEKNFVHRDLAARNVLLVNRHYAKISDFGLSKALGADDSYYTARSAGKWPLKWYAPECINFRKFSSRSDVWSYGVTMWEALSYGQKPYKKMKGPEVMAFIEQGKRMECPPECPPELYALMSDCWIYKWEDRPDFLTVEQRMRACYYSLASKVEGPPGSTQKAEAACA

Rhodamine-ETDG[pY]VAPLTCSD (reading uncertain) [ErbB2 pY1127 phosphopeptide, rhodamine-labelled, for protein microarrays]
Kd (ABL1 SH2 domain): 0.529 µM and 0.301 µM
Kd (FGR SH2 domain): 5.18 µM
Kd [1]: 2.04 µM and 1.21 µM
Kd [2]: 4.16 µM
Kd (TNS3 SH2 domain): 5.96 µM
Kd [3]: 2.2 µM and 3.21 µM
